Laboratory results taken from the supplement of paper PMC5949888.

System: Saccharomyces cerevisiae PS128 hsf1 delta, HSF1(1-493) fusion
Assay: growth estimate (transactivation domain function in HSF1 fusion, heat-shock survival) (a.u. (slope of normalised read count over time)); higher = stronger growth at 37°C, i.e. more transactivation activity
Conditions: library: design library
In short: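 Designed transactivation-domain oligos were fused to truncated yeast HSF1 (amino acids 1–493) and expressed in an hsf1-deleted yeast strain. Cells were replica-plated onto –trp 5-FOA plates and incubated at 30°C or 37°C for 0, 2, 4, 6 and 8 days. Inserts were PCR-amplified and Illumina MiSeq-sequenced as six barcoded replicates from one experiment. Growth estimate is the slope of a robust linear fit over time of read counts normalised to sample totals and starting count.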

Sequence | growth estimate
DLDASWDYIFETTE | 0.507
DLDESWDYKFETTE | -0.178
PEFPGIELQELQELQALLQP | -0.215
TMDDVYAYLFDD | 4.4
EDLRSILWSDVY | < -0.25
EFPDLLDLDFILSN | 0.17
TMDDVYNYLFPD | 1.69
DLDESWGYIFETTE | 0.0335
DFDLDMLGDFDLKMLG | -0.116
VADDIWEELLSEAL | 5.63
DFDLDMLGDFKLDMLG | 0.503
EDDDEFSLWDSGL | -0.19
MLSSHGFSVDTSALADLFSP | -0.191
RFNDLLDLDFILSN | -0.133
DFDLDRLGDFDLDMLG | 4.07
VADPIWEELLSEDL | 0.903
EFNDPLDLDFILSN | -0.119
PEFPGIELQELQELQALPQQ | < -0.25
EDDDEFSLWDSMK | < -0.25
DLDESWDYIFETTG | 2.74
DLDEAWDYIFETTE | 1.45
DELSWIAELLEKDG | 0.851
EDDDEFSRWDSML | -0.0194
EDLYSILASDVY | -0.238

Sequence | growth estimate
PEFPGIELQRLQELQALLQQ | -0.107
PFPDTQDDFLKWWRSKEAQ | -0.183
LFDYDFLFGNDFG | 0.038
LFGYDFLFGNDFA | 1.68
RLDESWDYIFETTE | -0.191
QQNGEIKQLWDFN | < -0.25
TMDDVYNYRFDD | -0.0969
LFDYDRLFGNDFA | -0.0061
RFDLDMLGDFDLDMLG | 0.634
DFGLDMLGDFDLDMLG | 2.44
LGDYDFLFGNDFA | 2.6
PEFPGIEPQELQELQALLQQ | 0.114
PFPDTADDFLKWWRSEEAQ | 0.6
EKDDEFSLWDSML | -0.193
AADDIWEELLSEDL | 2.1
TMDDVRNYLFDD | < -0.25
LFDYDALFGNDFA | 0.627
DGDESWDYIFETTE | -0.219
PFPRTQDDFLKWWRSEEAQ | -0.248
PFPDTQDDFLKWWRSEEKQ | < -0.25
MLSSHGFSVDTSALLDLFKP | -0.179
TMGDVYNYLFDD | 0.113
PEFPGIRLQELQELQALLQQ | -0.249
LFDYDPLFGNDFA | 0.326

Sequence | growth estimate
DELSWIIELPEKDG | -0.237
VADDIWAELLSEDL | 8.23
EDDDEFSLWKSML | < -0.25
MLKSHGFSVDTSALLDLFSP | -0.17
AMDDVYNYLFDD | 2.28
TMDDVYPYLFDD | 0.27
EFNDGLDLDFILSN | -0.0825
EFNDLLKLDFILSN | -0.0935
ERLYSILWSDVY | < -0.25
PEFPGIKLQELQELQALLQQ | -0.02
LADYDFLFGNDFA | 2.67
EDDDEFSLWDKML | -0.201
DELSWIIALLEKDG | -0.104
DELSWIIELLEKDA | 2.02
EFNGLLDLDFILSN | -0.173
EDDKEFSLWDSML | -0.135
DELPWIIELLEKDG | -0.193
GDLYSILWSDVY | -0.212
PFPDTQDGFLKWWRSEEAQ | < -0.25
MLSSHGFSVDTSGLLDLFSP | 0.0909
DLGESWDYIFETTE | 0.355
DELKWIIELLEKDG | -0.0445
DRLSWIIELLEKDG | < -0.25
PFPDTQDDFLKWWRSEAAQ | -0.154

Sequence | growth estimate
TMADVYNYLFDD | 0.169
EFNDLLGLDFILSN | < -0.25
DELSWIIEKLEKDG | < -0.25
DRDLDMLGDFDLDMLG | 0.301
EFNDLRDLDFILSN | -0.248
PAFPGIELQELQELQALLQQ | -0.0264
PFDLDMLGDFDLDMLG | 4.25
VADDIWEGLLSEDL | 0.676
VADKIWEELLSEDL | -0.0109
DLDESWDYIFETAE | 1.08
DKDESWDYIFETTE | -0.235
VAPDIWEELLSEDL | 3.05
DFDLDMLGDFDLDMLA | 1.83
TMDDVYNYLFAD | 1.32
EDLYSILWSDVP | 0.204
PFDYDFLFGNDFA | 2.14
QQGGEIAQLWDFN | 0.0021
PEFPGIELQELQELQALRQQ | -0.168
MLSSHGFSVDTSALLDPFSP | < -0.25
DPDLDMLGDFDLDMLG | 4.23
DELSWIIELLEKGG | 0.213
MRSSHGFSVDTSALLDLFSP | -0.241
MLSSHAFSVDTSALLDLFSP | -0.157
QQNGEIAQLRDFN | < -0.25

Sequence | growth estimate
DFDLDMKGDFDLDMLG | 0.067
VAKDIWEELLSEDL | 6.26
EPLYSILWSDVY | -0.136
LFDYDFLFGNDRA | 0.389
EFNDRLDLDFILSN | -0.246
MLSSHGGSVDTSALLDLFSP | -0.112
EDLYSILWGDVY | -0.152
AFNDLLDLDFILSN | 0.948
EDDDEFSLWDSMP | -0.236
PMDDVYNYLFDD | 1.41
EFNDLLDLDKILSN | -0.21
EFNDLLDPDFILSN | -0.0736
PEFPGIELQELQRLQALLQQ | < -0.25
DLDESWRYIFETTE | 0.0438
PEFPGIELQPLQELQALLQQ | -0.243
DLDESWDYIFETTE | 1.92
KFPDTQDDFLKWWRSEEAQ | -0.0955
LFDYDFLFGNDFA | 6.94
KEFPGIELQELQELQALLQQ | < -0.25
EFNDLLDLDFILSR | 0.761
DLDESWPYIFETTE | -0.161
TMDDVYGYLFDD | 0.586
GMDDVYNYLFDD | 0.253
EDDDEFSLWDSPL | 0.011

Sequence | growth estimate
EFNDLLDLDFIASN | 0.58
PEFPGIELQELQELQAPLQQ | < -0.25
QQNGRIAQLWDFN | -0.248
QQNGEIAQLWDFN | -0.146
MGSSHGFSVDTSALLDLFSP | 0.215
EPDDEFSLWDSML | 0.531
MLSSHGFSVDTSALLDLGSP | -0.228
DLDESWDYIFETGE | 1.44
DFDLDMLGKFDLDMLG | 1.77
EDRDEFSLWDSML | 0.0908
GFNDLLDLDFILSN | -0.0099
EDDDEFSLWDPML | 3.13
KFDLDMLGDFDLDMLG | 0.164
EDDDEFSLWDGML | 0.875
EFNDLLDLDFILAN | < -0.25
VADDGWEELLSEDL | < -0.259
PFPDTQDDKLKWWRSEEAQ | -0.245
QQNGEIARLWDFN | -0.234
PFPDTQDDFLKWWRSEEAP | 0.0281
ALSSHGFSVDTSALLDLFSP | 0.065
DELSWIRELLEKDG | 1.03
EANDLLDLDFILSN | 0.0838
EDLYSILWSGVY | -0.0514
DFDLDMPGDFDLDMLG | 6.81

Sequence | growth estimate
DLDPSWDYIFETTE | 0.39
DELSWGIELLEKDG | < -0.25
PFPDRQDDFLKWWRSEEAQ | -0.241
QQNPEIAQLWDFN | -0.234
EFNDLLDLDFIRSN | -0.0675
EDDDEFSLWGSML | 1.19
MLSSHGFRVDTSALLDLFSP | -0.241
PFPDTQDDFGKWWRSEEAQ | < -0.25
DELSWIIRLLEKDG | < -0.25
GADDIWEELLSEDL | 1.28
EFRDLLDLDFILSN | 0.421
DFDLDMLGDFDLDALG | 0.195
EDLYSILWSDVG | -0.0353
DFDLDMLGDFDLDMKG | 3.28
QQNGEIAQLGDFN | -0.218
EFNRLLDLDFILSN | < -0.25
MLSSHGFSVDTSRLLDLFSP | -0.171
MLSSHGPSVDTSALLDLFSP | -0.216
EFNDLLPLDFILSN | < -0.25
PEKPGIELQELQELQALLQQ | -0.204
QQNGEIAGLWDFN | -0.148
DLDESWDYIFATTE | 1.5
PFPDTQDDFLKWWRSEEAK | -0.25
RFPDTQDDFLKWWRSEEAQ | -0.221

Sequence | growth estimate
LFDYDFLFGNRFA | -0.205
EKLYSILWSDVY | -0.183
GEFPGIELQELQELQALLQQ | -0.114
RDLYSILWSDVY | -0.248
DFDLDMLGRFDLDMLG | 1.8
EGNDLLDLDFILSN | 0.62
DFDLDMLADFDLDMLG | 0.343
PEPPGIELQELQELQALLQQ | < -0.25
DFDLDMLGDFDLDPLG | 9.65
MLSSHGFSVDTSALKDLFSP | < -0.25
LFDYDFLRGNDFA | -0.143
PEFPGIELQALQELQALLQQ | 0.169
MLSSHGFSVDKSALLDLFSP | -0.249
PFPDTQDDFLKWWRSEEAR | -0.248
DGDLDMLGDFDLDMLG | 0.418
LFDYDFLFGNAFA | 0.211
VADDIWEELLREDL | 10.8
DELSPIIELLEKDG | -0.237
MLSSHGFSVDTSKLLDLFSP | -0.143
EDLYSILWSRVY | -0.0908
DELGWIIELLEKDG | -0.244
PFPDTQDDFLKWWRSEEAG | 0.0636
